{"source": "paper PMC3830444", "key": {"γT-thrombin": {"target": "γT-thrombin (UniProt P00734)"}, "human α-thrombin (human) [1]": {"target": "human α-thrombin (human) (UniProt P00734)"}, "activated protein C": {"target": "activated protein C (UniProt P04070)", "sequence (P04070 whole entry, looked up)": "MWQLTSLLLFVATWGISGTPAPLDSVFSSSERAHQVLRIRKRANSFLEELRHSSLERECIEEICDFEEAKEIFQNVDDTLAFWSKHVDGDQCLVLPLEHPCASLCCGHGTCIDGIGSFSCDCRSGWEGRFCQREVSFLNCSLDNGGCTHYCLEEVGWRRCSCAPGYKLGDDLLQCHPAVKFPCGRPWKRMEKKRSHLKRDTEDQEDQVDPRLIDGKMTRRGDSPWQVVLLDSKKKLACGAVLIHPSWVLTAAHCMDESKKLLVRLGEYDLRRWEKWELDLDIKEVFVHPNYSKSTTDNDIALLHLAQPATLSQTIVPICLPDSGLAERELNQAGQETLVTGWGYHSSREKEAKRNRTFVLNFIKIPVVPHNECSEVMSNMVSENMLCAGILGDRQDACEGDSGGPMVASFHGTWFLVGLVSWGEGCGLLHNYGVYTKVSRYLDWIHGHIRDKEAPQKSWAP"}, "[2]": {"target": "FPR-chloromethyl ketone-thrombin (active site-inhibited α-thrombin) (human) (UniProt P00734)", "assay": "ELISA; HCII 1-75 immobilised on microtiter plates; α-thrombin or FPR-ck-thrombin incubated with or without competitor peptides or proteins; bound thrombin detected after washes with a horseradish peroxidase-conjugated sheep anti-human antibody (A490); one-site binding fit, IC50 = competitor concentration that reduces binding by 50%"}, "human α-thrombin (human) [3]": {"target": "human α-thrombin (human) (UniProt P00734)", "remark": "listed apart in the source"}, "human α-thrombin (human) [4]": {"target": "human α-thrombin (human) (UniProt P00734)", "assay": "ELISA; HCII 1-75 immobilised on microtiter plates; α-thrombin or FPR-ck-thrombin incubated with or without competitor peptides or proteins; bound thrombin detected after washes with a horseradish peroxidase-conjugated sheep anti-human antibody (A490); one-site binding fit, IC50 = competitor concentration that reduces binding by 50%"}, "human α-thrombin (human) [5]": {"target": "human α-thrombin (human) (UniProt P00734)", "assay": "ELISA"}}, "data": [{"substance": "API M358R (alpha-1 proteinase inhibitor with the substitution of Met358 by Arg) (from UniProt P01009 25-418) (natural protein)", "values": [{"measurement": "second order rate constant of inhibition (k2) of γT-thrombin", "setting": "γT-thrombin", "result": 98300, "unit": "M⁻¹ s⁻¹"}, {"measurement": "second order rate constant of inhibition (k2) of α-thrombin", "setting": "human α-thrombin (human) [1]", "result": 367000, "unit": "M⁻¹ s⁻¹"}, {"measurement": "second order rate constant of inhibition (k2) of APC", "setting": "activated protein C", "result": 28300, "unit": "M⁻¹ s⁻¹"}]}, {"substance": "HAPI M358R (residues 1-75 of heparin cofactor II fused to API M358R) (from UniProt P01009 25-418)", "values": [{"measurement": "second order rate constant of inhibition (k2) of γT-thrombin", "setting": "γT-thrombin", "result": 567000, "unit": "M⁻¹ s⁻¹"}, {"measurement": "second order rate constant of inhibition (k2) of α-thrombin", "setting": "human α-thrombin (human) [1]", "result": "3.1e+06", "unit": "M⁻¹ s⁻¹"}, {"measurement": "second order rate constant of inhibition (k2) of APC", "setting": "activated protein C", "result": 28300, "unit": "M⁻¹ s⁻¹"}]}, {"substance": "HAPI RCL5 (HAPI M358R with additional F352A/L353V/E354V/A355I/I356A/I460L substitutions) (from UniProt P01009 25-418)", "values": [{"measurement": "IC50", "setting": "[2]", "result": 17, "unit": "µM"}]}, {"substance": "HCII 1-75 (recombinant protein of 84 amino acids: residues 1-75 of heparin cofactor II with an N-terminal nonapeptide tag) (domain or fragment)", "values": [{"measurement": "concentration required to double the Thrombin Clotting Time (TCT) of diluted citrated human plasma", "setting": "human α-thrombin (human) [3]", "result": 12, "unit": "µM"}, {"measurement": "IC50", "setting": "[2]", "result": 9, "unit": "µM"}, {"measurement": "IC50", "setting": "human α-thrombin (human) [4]", "result": 8, "unit": "µM"}]}, {"substance": "HV3API M358R (HV3 residues 54-66 fused through G6 to the N-terminus of API M358R) (from UniProt P01009 25-418)", "values": [{"measurement": "second order rate constant of inhibition (k2) of APC", "setting": "activated protein C", "result": 31700, "unit": "M⁻¹ s⁻¹"}]}, {"substance": "HV3_(54-66) synthetic peptide", "values": [{"measurement": "concentration required to double the Thrombin Clotting Time (TCT) of diluted citrated human plasma", "setting": "human α-thrombin (human) [3]", "result": 0.45, "unit": "µM"}, {"measurement": "IC50", "setting": "human α-thrombin (human) [5]", "result": 0.9, "unit": "µM"}]}]}
